Results: paper doi:10.1101/683441
Blank lines part the entries; values can stand above or below the molecule they belong to.

Biological target: GST-tagged Nedd4-2, full length (mouse)
Experiment: pull-down

Chain of GST-tagged Nedd4-2, full length (mouse) (Q8CFI0 whole entry): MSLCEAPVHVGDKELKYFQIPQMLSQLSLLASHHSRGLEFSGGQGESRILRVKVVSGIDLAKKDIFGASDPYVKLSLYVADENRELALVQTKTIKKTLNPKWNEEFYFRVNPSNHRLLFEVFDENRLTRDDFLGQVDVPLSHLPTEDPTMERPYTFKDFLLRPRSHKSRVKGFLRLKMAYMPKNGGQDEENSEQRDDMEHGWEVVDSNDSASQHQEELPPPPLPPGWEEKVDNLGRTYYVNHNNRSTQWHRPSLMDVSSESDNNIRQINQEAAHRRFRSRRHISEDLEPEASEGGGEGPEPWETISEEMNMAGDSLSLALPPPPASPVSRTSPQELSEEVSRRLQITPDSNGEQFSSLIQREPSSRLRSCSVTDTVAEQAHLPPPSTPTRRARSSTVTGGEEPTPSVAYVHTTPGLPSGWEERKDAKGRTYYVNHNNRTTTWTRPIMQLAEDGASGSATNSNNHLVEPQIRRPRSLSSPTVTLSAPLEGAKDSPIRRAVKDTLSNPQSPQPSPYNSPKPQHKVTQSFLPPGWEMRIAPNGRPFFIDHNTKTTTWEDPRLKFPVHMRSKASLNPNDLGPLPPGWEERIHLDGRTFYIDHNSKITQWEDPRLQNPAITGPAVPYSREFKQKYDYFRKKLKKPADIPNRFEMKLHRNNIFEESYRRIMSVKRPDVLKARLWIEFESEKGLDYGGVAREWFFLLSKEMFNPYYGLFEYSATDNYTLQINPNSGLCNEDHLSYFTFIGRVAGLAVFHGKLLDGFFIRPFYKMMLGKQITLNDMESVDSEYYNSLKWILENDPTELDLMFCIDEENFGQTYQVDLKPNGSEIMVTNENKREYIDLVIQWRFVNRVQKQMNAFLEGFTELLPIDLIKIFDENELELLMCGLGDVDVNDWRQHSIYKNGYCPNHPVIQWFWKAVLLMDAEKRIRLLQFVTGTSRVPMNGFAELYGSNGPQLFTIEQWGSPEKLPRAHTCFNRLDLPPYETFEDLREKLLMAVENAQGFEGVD

fold bound against GST-N4-1: 2 fold
Molecule: HA-tagged Connexin43 (gap junction alpha 1 protein) (from UniProt P23242 1-382) (natural protein)

fold bound against GST-N4-1: 2 fold
B1: HA-tagged Kir4.1 (inwardly rectifying K+ channel 4.1) (natural protein)
chain: MTSVAKVYYSQTTQTESRPLVAPGIRRRRVLTKDGRSNVRMEHIADKRFLYLKDLWTTFIDMQWRYKLLLFSATFAGTWFLFGVVWYLVAVAHGDLLELGPPANHTPCVVQVHTLTGAFLFSLESQTTIGYGFRYISEECPLAIVLLIAQLVLTTILEIFITGTFLAKIARPKKRAETIRFSQHAVVASHNGKPCLMIRVANMRKSLLIGCQVTGKLLQTHQTKEGENIRLNQVNVTFQVDTASDSPFLILPLTFYHVVDETSPLKDLPLRSGEGDFELVLILSGTVESTSATCQVRTSYLPEEILWGYEFTPAISLSASGKYIADFSLFDQVVKVASPSGLRDSTVRYGDPEKLKLEESLREQAEKEGSALSVRISNV
